# Reference: the supplement of paper PMC9170038
# Test system: K4 kissing-loop RNA reporter
# Experiment: apparent KD of K4 kissing-loop reporter; higher = weaker reporter binding
# Details: Eterna round: R107; input ligand: FMN 200 uM
# Experimental: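 RNA-MaP round R107: designed RNA switches with theophylline, tryptophan, arginine or FMN aptamers are transcribed on-chip within common flanks. They are titrated with a labelled K4 kissing-loop RNA reporter in RNA-MaP buffer (100 mM Tris pH 7.5, 80 mM KCl, 4 mM MgCl2), without ligand or with the indicated ligand. Median apparent KD per design.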
# 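Note: bound reporter read as fluorescence of individual clusters on recovered sequencing chips by microscopy, with normalized cluster intensities fitted with a binding model.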
row,Sequence,apparent KD of K4 kissing-loop reporter
1,UGAUCACAGUGAUGUUGUGGCAAAAGUGAUACCAGCCGUGUACGAGGCCCUUGGCAGCACCAGGGCUGUACGUCGUUAGAUCCGG [theeternabot_exclusion_KL_Theo_A_33],211 nM
2,AUAUCGGUUGAGAGUGAUGUUCCUUGUGUUCGAGGACCGGUACGGCCGCCACUCGGGUAGAAAAUAAAAGAUGUGUUUGAUUUUU [BDazzled - #14 SS Tryptophan A],243 nM
3,GUAUCGCUAGGAGGAUAUUCCAUUUUACAUAGAAAUGGCUAUGCGGAGUGAUGUUCCGAUUUACGGGAAGAAGGCCUAGUGAUAC [FMN B 21],137 nM
4,UGCAGUGAUGUUGCUAUUUUUCUUGAUUAACGAGGACCGGUACGGCCGCCACUCGAUUUCUCUCUAGUCCAGUAUGUUGUUUGAU [whbob_EX_Tryp_A_t5],96.2 nM
5,UAUGUCAUUCUCGACGGAGUGAUGUUCCGACGAGGACCGGUACGGCCGCCACUCGGCAGAAUUGAGUCUGUGAUCCUAGAUCAAU [theeternabot_exclusion_KL_Trp_A_44],120 nM
6,CCGCUACCCUCAGGAUAUUAAGUAUUAGUGAUGUUAGUAAACCGAUGGCGAAAGCCAUCGGUAUGUUGAGAAGGGAGGGUAGCGG [whbob_SS_FMNB__2th198],356 nM
7,UACCUGCUGUCAGGAUAUGAGUGCAGUGAUGUUGCACUCAACGUAACCAUCUUGAAAUGCAAACACUCAGAAGGGACGCGCGAAG [Onaninso],151 nM
8,GGGUGGCAGGCGGCCGCCACUCUGAGCAGCCAGUGAGUGAUGUUCGUGGCGGAAGAAUGUUCGUAGAGGACCGGGUUUGUUGUUC [Same State Tryptophan B GF 22],472 nM
9,UUGUUUAACUGAAGGAGCGGCAAUUGAUACGUAGAUAUAGUGAUGUUAUAUAAGAUAGAGAGCCAGGUAGGUCGCAGAGGUGUUU [ExArgB.R],231 nM
10,UUUGGAAGCGGUGUUGAUUAGGGAGCGGAAGGAGCGCCGAUUAUGGCAGGUAGGUCGCCGGAAUGUAGUGAUGUUGCAUAGAGGG [ExArgA.W],209 nM
11,UCUGUUGUAUAUGAUACCAGCAGUGAGAGACAGGAAGUAUAGUGAUGUUAUAUGAGAGAAUGCCCUUGGCAGCGUGUGCGGGUGG [SSTheophylB.X],138 nM
12,GUACGCUCUCGAGUGAUGUUCGGUAAUCGCUAGGAUAUCGCUUUUGCGAGAAGGAGCGGAAUGAGGAAACUCGUUCUGAGUGUAC [FMN A 22],452 nM
13,AAGAAGAAUGGAAGGAGCGAGCAGAUAUAACCAGUGAUGUUGGAAAGCCUUAUUGCUUAAGCUCAGGUAGGUCGCCAAGAAAAGA [whbob_Ex_Arginine_B_2t151],162 nM
14,AGUCCACUCUAAAGAGUGGACCUAAGGGAUACCAGUGAUGUUGGUCACCCUUGGCAGCCCUCUGUCAUCGAUAAAGAUGGCAGAA,142 nM
15,UACUUUAAUUUAUAACUAUCUUUAUUUUGUCAGGAUAUCGUAUUGUCGAGAAGGGACUCUCUCAAGUGAUGUUUGAGAAAUCGUU [JR_SSFMNA_Sub024],84.8 nM
16,AAGUGUUCUAGUGAUACCAGACAUUUCUAUUUUAUCUUUAUAGCUAAGUGAUGUUUAGCAGUCCCUUGGCAGCACUAUUUCACUA [JR_SSTheophyB_Sub017],123 nM
17,AAGGUGAUCCUCGAUACCAGCUCAAAAUGAGUGAUGUUCAUGAAAGCCUGGAAACAGGCGAGCCCUUGGCAGCGAGUUACAUCAA [KL-SSTheoB8],204 nM
18,AAGACUUGCAUCGAUACCAGCCCAGUGAUGUUGGGCUGCUCUCCAUGGGUGCCAGACACGGGCCCUUGGCAGCGAGGUAAGGCCC [Soveri],129 nM
19,AGACUUCACCGAAGGAGCGACGUGGCCUAGUGAUGUUAGGUACGAGAGAAAUCUCGUAUACGUCAGGUAGGUCGCGGUGAAGUCA [Omei KL Arginine B SS C v8],868 nM
20,AACUUAAUUUAUAAGCAGUGAUGUUGCUCACGAGGACCGGUACGGCCGCCACUCGAUCGGACUUAGGUCUUCAAUUAUUUCUUAA [JR_ExcTryptoA_Sub018],114 nM
21,AGUGAUAUAUGAGGAUAUGGGUUUGUUAAUGAGUUUGUUUUAGUGUUGUUUGGUUAGUGAUGUUAUUUAGAAGGCGUGAGUGAUG [vxxexmullin],130 nM
22,UACAGGGAUAGUGAUGUUAUCCCAUGUGAUACCAGUGUCAUCCAACACCCUUGGCAGCAUACGGGCAGUGAUGUUGUUCUUGGUA [#17 K4 Theophylline A Exclusion],91.7 nM

row,Sequence,apparent KD of K4 kissing-loop reporter
1,UGUACCGAGUCAGGAUAUCAUAAUAAUCGAGUGAUGUUCGAAUAACGACUGACAAAGUCGGUCGAUUGAGAAGGGACUUGGUACU [FmnBS 7 #SwitchBubble #StaticStem],150 nM
2,UGUCGAGUGAUGUUCGAUGUGGUGCAUUCAGAGGAUAUAGGGUGGGCUAGAAGGCUGAAAAGUGCUUCGAGUGAUGUUCGAAGAU [Exclusion FMN A GF8],70.6 nM
3,GCGCGGCUCAGUGAUGUUGAGCCUCGGAAACGAGGACCGGUACGGCCGCCACUCGUCCGCGCAGCUGAGGCAAAAGCCUCGGCUA [Omei KL Tryp A SS B v2],468 nM
4,CAAAUAUGCGGUAGGUUCAAGCGCUGGGAAGGAGCGCAGAUGACUGCAGGUAGGUCGCCCAGUGAUGUUGGGCUUUCCACCUAUG [Esisusa],132 nM
5,AAAUACAUUUUAUUAUAUAACUUUUCAGAAGGAGCGUGGAAGUUCACAGGUAGGUCGCUGAAUAUUGGACUAGUGAUGUUAGUUA [JR_Nu_SSArginiA_Sub021],222 nM
6,GGAUCCACCAGUGAUGUUGGAGAAAACUCCGAGGAUAUGACGAAAGUCAGAAGGUGGUAGACUGGACAAAGUCCGGUCGGAUCCA [FmnA 24 #SwitchBubble #K4Early],790 nM
7,GUACCAGUGAUGUUGGUAGGCGAGCGGGAUACCAGCCAAGACUCAGGCCCUUGGCAGCCCACAUAUCCCACGUAGGUAGUAGCUC [Same State - Theophylline A (Freestyle 17)],96 nM
8,UGACUGGACUGAAGGAGCGCGAAAACUCCUAGUGAUGUUAGGAAAACGAGACAAAGUCUCGCGCAGGUAGGUCGCAGUCUAGUCU [ArgBS 20 #SwitchBubble #StaticStem],131 nM
9,UAAGAAUAAGUAGCAGUGAUGUUGCUACUACGAGGACCGGUACGGCCGCCACUCGAAUACGAGUGGAAGUAGCAACUACCACUCA [(H1)-(H2)-(Trp1)-(Trp2)-(T)'-(H)'-(T)''_Design7],114 nM
10,GCAUGAUAGUAAGGAUAUAGAUAAUCCUUAUAUAUAUCGAGUGAUGUUCGAUGUGCCAAGGUACAUCUAGAAGGUACUGUAAGGU [Same State FMN B GF 17],265 nM
11,AUAUAAGUCGGAGGAUAUCCAGUGAUGUUAUGUUGUGAUGUUUAGUGAUGUUAGGCAUCAGUGAAGGGAGAAGGCCGUAAGUGAU [APPLE],68.6 nM
12,AUGUCUAAUACGGCCGCCACUCGAGCAGUGAUGUUGCUCAGUAAUGGUCAUCGUCGUACAUGCCCGAGGACCGGGUAUUGAUUUG [Remain],147 nM
13,UGGAUAUAGUGAUGUUAUAUAGAGAUGGAUACCAGCUGAGAGAAUAGCCCUUGGCAGCCGAAAGAAGUAUCAUUAGAGAAGAAUG [ExTheophyl.Aj],248 nM
14,AACCACUCGUUACAUCACUAUCGAGUGGAACGAGGACCGGUACGGCCGCCACUCGAAUAGAUGCAGUGAUGUUGCAUCUUGGAAU [KL-SSTryp-A (BrourdMod)4 #dotplot2 strengthened],181 nM
15,AAAAGAAAGUCGGCCGCCACUCAACGCAGUGAUGUUGCAAGACAGAAGAGCAGUGAUGUUGCCCAGAGGACCGGGACACAAGGCC [Same State Typtophan B GF 3],352 nM
16,UGCUGUCAAUAAGAUACCAGUUGGACUGAGUGAUGUUCAUCCAUUAUAUCUAUUCUGCUUAACCCUUGGCAGCUUGAUGACGUUU [theeternabot_exclusion_KL_Theo_B_6],174 nM
17,UAUACUAGACAAGAGAGAAUUCUCUCAAGAGAGGAUAUCCGAAUUCGGAGAAGGCUCUCUAAGUGAUGUUUGGAAUAGUCUAGAA [AK5 SS FMN A],660 nM
18,ACGCUAGCUACCGAAAGGUAGCUAGCGAGUGAGGAUAUGUGGAAACACAGAAGGCACAGCACAGUGAUGUUGUGCGGCGAAAGCC,587 nM
19,GUAUCGCUAGGAGGAUAUUUCAAAUAACCAAUAAAUGGUUAUACGGAGUGAUGUUCCGAUUUACGGAAAGAAGGCCUAGUGAUAC [FMN B 5],137 nM
20,AAGUAGUCCCUUGUUGUCAUCGAAGAUGAACGAGGACCGGUACGGCCGCCACUCGGAGUGAUGUUCCGAUGGCUGCAAAAUAAAA [MatMod 22 - Jieux - Exclusion - Tryptophan A],103 nM
21,GCCGUAGAUUGAAGGAGCGCUAGUAGUGAUGUUGCUUGCACUUCUUGUGUAAGAAGAACCUAGCAGGUAGGUCGCAAUCUACGGC,700 nM

# Same assay, conditions: Eterna round: R107; input ligand: arginine 13.2 mM
row,Sequence,apparent KD of K4 kissing-loop reporter
1,UGAUCACAGUGAUGUUGUGGCAAAAGUGAUACCAGCCGUGUACGAGGCCCUUGGCAGCACCAGGGCUGUACGUCGUUAGAUCCGG [theeternabot_exclusion_KL_Theo_A_33],156 nM
2,AUAUCGGUUGAGAGUGAUGUUCCUUGUGUUCGAGGACCGGUACGGCCGCCACUCGGGUAGAAAAUAAAAGAUGUGUUUGAUUUUU [BDazzled - #14 SS Tryptophan A],91.5 nM
3,GUAUCGCUAGGAGGAUAUUCCAUUUUACAUAGAAAUGGCUAUGCGGAGUGAUGUUCCGAUUUACGGGAAGAAGGCCUAGUGAUAC [FMN B 21],119 nM
4,UGCAGUGAUGUUGCUAUUUUUCUUGAUUAACGAGGACCGGUACGGCCGCCACUCGAUUUCUCUCUAGUCCAGUAUGUUGUUUGAU [whbob_EX_Tryp_A_t5],124 nM
5,UAUGUCAUUCUCGACGGAGUGAUGUUCCGACGAGGACCGGUACGGCCGCCACUCGGCAGAAUUGAGUCUGUGAUCCUAGAUCAAU [theeternabot_exclusion_KL_Trp_A_44],99.3 nM
6,CCGCUACCCUCAGGAUAUUAAGUAUUAGUGAUGUUAGUAAACCGAUGGCGAAAGCCAUCGGUAUGUUGAGAAGGGAGGGUAGCGG [whbob_SS_FMNB__2th198],946 nM
7,UACCUGCUGUCAGGAUAUGAGUGCAGUGAUGUUGCACUCAACGUAACCAUCUUGAAAUGCAAACACUCAGAAGGGACGCGCGAAG [Onaninso],99.8 nM
8,GGGUGGCAGGCGGCCGCCACUCUGAGCAGCCAGUGAGUGAUGUUCGUGGCGGAAGAAUGUUCGUAGAGGACCGGGUUUGUUGUUC [Same State Tryptophan B GF 22],245 nM
9,UUGUUUAACUGAAGGAGCGGCAAUUGAUACGUAGAUAUAGUGAUGUUAUAUAAGAUAGAGAGCCAGGUAGGUCGCAGAGGUGUUU [ExArgB.R],227 nM
10,UUUGGAAGCGGUGUUGAUUAGGGAGCGGAAGGAGCGCCGAUUAUGGCAGGUAGGUCGCCGGAAUGUAGUGAUGUUGCAUAGAGGG [ExArgA.W],234 nM
